# Earlier results in patent publication US20170037111A1, “Novel peptides and combination of peptides for use in immunotherapy against ovarian cancer and other cancers” (immatics biotechnologies GmbH, priority 2015, published 2017).
# B1: abagovomab: anti-CA-125 antibody (antibody, chains of the INN, looked up, V domains shown)
# VH: QVKLQESGAELARPGASVKLSCKASGYTFTNYWMQWVKQRPGQGLDWIGAIYPGDGNTRYTHKFKGKATLTADKSSSTAYMQLSSLASEDSGVYYCARGEGNYAWFAYWGQGTTVTVSS
# VL: DIELTQSPASLSASVGETVTITCQASENIYSYLAWHQQKQGKSPQLLVYNAKTLAGGVSSRFSGSGSGTHFSLKIKSLQPEDFGIYYCQHHYGILPTFGGGTKLEIK
# System: ovarian cancer
# Settings: clinical studies, phase as stated
molecule,measurement,value
B1,clinical effect in ovarian cancer patients,promising results
